system: Escherichia coli TOP10; experiment: shrunken log2 fold change of peptide-encoding DNA abundance (4.5 h post-induction vs induction); higher = less antimicrobial activity (less host growth inhibition); conditions: time post-induction: 4.5 h; library: site-saturation at positions 5, 18, 19, 20
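Further: peptides expressed intracellularly from a pBAD plasmid library in pooled LB shake-flask culture, induced with 0.3% L-arabinose, DNA abundance read by NGS, three biological replicates, DESeq2 with apeglm shrinkage.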

Sequence	shrunken log2 fold change
RRIRVRPPRLPRPRPRPQCLPRP	-0.0868
RRIRHRPPRLPRPRPRPVWCPRP	-0.0641
RRIRPRPPRLPRPRPRPRLSPRP	0.306
RRIRVRPPRLPRPRPRPINKPRP	-0.613
RRIRARPPRLPRPRPRPADPPRP	0.611
RRIRCRPPRLPRPRPRPHQGPRP	-0.0624
RRIRRRPPRLPRPRPRPCCHPRP	-0.345
RRIRFRPPRLPRPRPRPPEVPRP	0.795
RRIRVRPPRLPRPRPRPDAYPRP	-0.056
RRIRFRPPRLPRPRPRPVHFPRP	-0.263
RRIRMRPPRLPRPRPRPPFCPRP	0.0505
RRIRMRPPRLPRPRPRPKNMPRP	-0.0276
RRIRNRPPRLPRPRPRPVEIPRP	-0.0323
RRIRPRPPRLPRPRPRPRSFPRP	0.0582
RRIRHRPPRLPRPRPRPIGIPRP	0.0295
RRIRSRPPRLPRPRPRPGDPPRP	0.353
RRIRQRPPRLPRPRPRPKGMPRP	0.0157
RRIRFRPPRLPRPRPRPKKHPRP	-0.264
RRIRWRPPRLPRPRPRPNNWPRP	-0.0483
RRIRLRPPRLPRPRPRPKKKPRP	0.141

Sequence	shrunken log2 fold change
RRIRERPPRLPRPRPRPSAVPRP	-0.411
RRIRARPPRLPRPRPRPRCPPRP	0.248
RRIRGRPPRLPRPRPRPPTYPRP	0.206
RRIRERPPRLPRPRPRPNKEPRP	-0.0147
RRIRTRPPRLPRPRPRPLKGPRP	-0.377
RRIRERPPRLPRPRPRPKADPRP	-0.0439
RRIRLRPPRLPRPRPRPPCPPRP	0.316
RRIRYRPPRLPRPRPRPGHKPRP	-0.485
RRIRNRPPRLPRPRPRPSPRPRP	0.0772
RRIRTRPPRLPRPRPRPDCRPRP	0.106
RRIRSRPPRLPRPRPRPITRPRP	-0.221
RRIRWRPPRLPRPRPRPPYMPRP	-0.16
RRIRGRPPRLPRPRPRPRRVPRP	0.485
RRIRIRPPRLPRPRPRPCKHPRP	-0.118
RRIRLRPPRLPRPRPRPDDAPRP	-0.115
RRIRQRPPRLPRPRPRPLMQPRP	0.0776
RRIRWRPPRLPRPRPRPLCGPRP	1.71
RRIRLRPPRLPRPRPRPCHPPRP	0.159
RRIRWRPPRLPRPRPRPFTLPRP	3.06
RRIRSRPPRLPRPRPRPKSRPRP	-0.0201

Sequence	shrunken log2 fold change
RRIRTRPPRLPRPRPRPQVRPRP	0.0794
RRIRERPPRLPRPRPRPASEPRP	-0.123
RRIRCRPPRLPRPRPRPHPSPRP	-0.00515
RRIRCRPPRLPRPRPRPPPDPRP	1.26
RRIRHRPPRLPRPRPRPFSGPRP	0.136
RRIRDRPPRLPRPRPRPTCGPRP	1.11
RRIRFRPPRLPRPRPRPCPWPRP	-0.0658
RRIRYRPPRLPRPRPRPKMTPRP	-0.728
RRIRFRPPRLPRPRPRPCYDPRP	-0.0301
RRIRWRPPRLPRPRPRPCVPPRP	-0.035
RRIRVRPPRLPRPRPRPCQLPRP	-0.202
RRIRHRPPRLPRPRPRPHFQPRP	0.0598
RRIRQRPPRLPRPRPRPIDPPRP	0.0328
RRIRRRPPRLPRPRPRPMDGPRP	0.0167
RRIRFRPPRLPRPRPRPLNCPRP	-0.125
RRIRQRPPRLPRPRPRPQVGPRP	0.331
RRIRHRPPRLPRPRPRPLNAPRP	-0.0576
RRIRNRPPRLPRPRPRPMQTPRP	-0.00987
RRIRCRPPRLPRPRPRPRKWPRP	-0.0179
RRIRGRPPRLPRPRPRPWHSPRP	0.0143
